Results taken from PMC13276077.

Legend:
Test in all cases: EMSA
[1] = target: MeCP2 full-length, e2 isoform (Homo sapiens) (UniProt P51608); settings: EMSA: 20 mM HEPES pH 7.5, 75 mM NaCl, 125 mM KCl, 50 uM EDTA, 2.5 mM beta-mercaptoethanol, 5% glycerol, BSA, 1.58 uM 47 bp competitor DNA (absent in free DNA …)
MeCP2 MBD (Homo sapiens) = MeCP2 MBD (Homo sapiens) (UniProt P51608); settings: EMSA: 20 mM HEPES pH 7.5, 75 mM NaCl, 125 mM KCl, 50 uM EDTA, 2.5 mM beta-mercaptoethanol, 5% glycerol, BSA, 1.58 uM 47 bp competitor DNA (absent in free DNA …)
[2] = target: MeCP2 R133G R133G (Homo sapiens) (UniProt P51608); settings: apparent, competitor DNA, EMSA: 20 mM HEPES pH 7.5, 75 mM NaCl, 125 mM KCl, 50 uM EDTA, 2.5 mM beta-mercaptoethanol, 5% glycerol, BSA, 1.58 uM 47 bp competitor DNA (absent in free DNA …)
[3] = apparent, no competitor DNA, meCpG at -1

“CGGTACCTCGCGAATGCATCTAATGGAACACATTGCACAGGATGTATATATCTGACACGTGCCTGGAGACTAGGGAGTAATCCCCTTGGCGGTTAAAACGCGGGGGACAGAACGCCGGTGCGTTTAAGCGGTGCTAGAGCTGTCTACGACCAATTGAGCGGCCTGCGCACAGGGATTCTCCAGGGCGGCCGCGTATTGGATCCCGAGCC (double strand) [37-N601(mod)-27 nucleosome -6 meCpG]” was tested, and the Kd ([1]; meCpG at -6) was 57.4 nM.

Sequence “ATGGAACACATTGCACAGGATGTATATATCTGACACGTGCCTGGAGACTAGGGAGTAATCCCCTTGGCGGTTAAAACGCGGGGGACAGCGCGTACGTGCGTTTAAGCGGTGCTAGAGCTGTCTACGACCAATTGAGCGGCCTCGGCACCGGGATTCTCCAGGGCGGCCGCGTATT (double strand) [15-N601-15 nucleosome -61 meCpG]” has a Kd ([1]; meCpG at -61 (GGCACCGGGATT)) of 137 nM, a Kd (MeCP2 MBD (Homo sapiens); meCpG at -61 (GGCACCGGGATT)) of 809 nM and a Kd ([2]; meCpG at -61 (GGCACCGGGATT)) of 534 nM.

“GAGCCACAAAATCACCGACGCTCACGGGTGCCCAGTTCGCGCGCCCACCTACCGTGTGAAGTCGTCACTCGGGCTTCTAAGTACGCTTAGCGCACGGTAGAGCGCAATCCAAGGCTAACCACCGTGCATCGATGTTGAAAGAGGCCCTCCGTCCTTATTACTTCAAGTCCCTGGGGTACCCGTTTCACTGCCA (double strand) [16-N603-30 nucleosome 81 meCpA]” showed a Kd ([1]; asymmetric meCpA at 81) of 65.3 nM and a Kd (MeCP2 MBD (Homo sapiens); asymmetric meCpA at 81) of 268 nM.

“CGGTACCTCGCGAATGCATCTAATGGAACACATTGCACAGGATGTATCCGGCTGACACGTGCCTGGAGACTAGGGAGTAATCCCCTTGGCGGTTAAAACGCGGGGGACAGAGCGTACGTGCGTTTAAGCGGTGCTAGAGCTGTCGCGCCCCAATTGAGCGGCCTCGGCACAGGGATTCTCCAGGGCGGCCGCGTATTGGATCCCGAGCC (double strand) [37-N601(mod2)-27 nucleosome +61 meCpG]” gave a Kd ([1]; meCpG at +61) of 62 nM.

“CGGTACCTCGCGAATGCATCTAATGGAACACATTGCACAGGATGTATATATCTGACACGTGCCTGGAGACTAGGGAGTAATCCCCTTGGCGGTTAAAACGCGGGGGACAGAACGCCGGTGCGTTTAAGCGGTGCTAGAGCTGTCTACGACCAATTGAGCGGCCTGCGCACAGGGATTCTCCAGGGCGGCCGCGTATTGGATCCCGAGCC (double strand) [37-N601(mod)-27 nucleosome -56 meCpG]” gave a Kd ([1]; meCpG at -56) of 55.8 nM.

Sequence “GAGCCACAAAATCACCGACGCCCGGGGGTGCCCAGTTCGCGCGCCCACCTACCGTGTGAAGTCGTCACTCGGGCTTCTAAGTACGCTTAGCGCACGGTAGAGCGCAATCCAAGGCTAACCACCGTGCATCGATGTTGAAAGAGGCCCTCCGTCCTTATTACTTCAAGTCCCTGGGGTACCCGTTTCACTGCCA (double strand) [16-N603-30 +81 CG nucleosome 81 meCpG]” has a Kd ([1]; meCpG at 81) of 65.5 nM.

For “CGGTACCTCGCGAATGCATCTAATGGAACACATTGCACAGGATGTATCCGGCTGACACGTGCCTGGAGACTAGGGAGTAATCCCCTTGGCGGTTAAAACGCGGGGGACAGAGCGTACGTGCGTTTAAGCGGTGCTAGAGCTGTCGCGCCCCAATTGAGCGGCCTCGGCACAGGGATTCTCCAGGGCGGCCGCGTATTGGATCCCGAGCC (double strand) [37-N601(mod2)-27 nucleosome -36 meCpG]”, the Kd ([1]; meCpG at -36) was 70.8 nM.

“CAGGATGTATATATCTGACACGTGCCTGGAGACTAGGGAGTAATCCCCTTGGCGGTTAAAACGCGGGGGACAGCGCGTACGTGCGTTTAAGCGGTGCTAGAGCTGTCTACGACCAATTGAGCGGCCTCGGCACCGGGATTCTCCA (double strand) [N601 nucleosome core particle -1 meCpG]” was tested, and the Kd [1, 3] was 44.2 nM and the Kd (MeCP2 MBD (Homo sapiens); [3]) was 50.7 nM.

With “CGGTACCTCGCGAATGCATCTAATGGAACACATTGCACAGGATGTATCCGGCTGACACGTGCCTGGAGACTAGGGAGTAATCCCCTTGGCGGTTAAAACGCGGGGGACAGAGCGTACGTGCGTTTAAGCGGTGCTAGAGCTGTCGCGCCCCAATTGAGCGGCCTCGGCACAGGGATTCTCCAGGGCGGCCGCGTATTGGATCCCGAGCC (double strand) [37-N601(mod2)-27 nucleosome unmethylated]” the Kd [1] was 91.9 nM.

Work on “ATGGAACACATTGCACAGGATGTATATATCTGACACGTGCCTGGAGACTAGGGAGTAATCCCCTTGGCGGTTAAAACGCGGGGGACAGCGCGTACGTGCGTTTAAGCGGTGCTAGAGCTGTCTACGACCAATTGAGCGGCCTCGGCACCGGGATTCTCCAGGGCGGCCGCGTATT (double strand) [15-N601-15 nucleosome 81 meCpA]” yielded a Kd ([1]; apparent, H1.0 1-97 prebound, competitor DNA, linker meCpA 81 bp from dyad) of 382 nM and a Kd ([1]; apparent, H1.0 25-97 prebound, competitor DNA, linker meCpA 81 bp from dyad) of 295 nM.

Work on “CGGTACCTCGCGAATGCATCTAATGGAACACATTGCACAGGATGTATATATCTGACACGTGCCTGGAGACTAGGGAGTAATCCCCTTGGCGGTTAAAACGCGGGGGACAGAACGCCGGTGCGTTTAAGCGGTGCTAGAGCTGTCTACGACCAATTGAGCGGCCTGCGCACAGGGATTCTCCAGGGCGGCCGCGTATTGGATCCCGAGCC (double strand) [37-N601(mod)-27 nucleosome unmethylated]” yielded a Kd [1] of 82.1 nM.

With “ATGGAACACATTGCACAGGATGTATATATCTGACACGTGCCTGGAGACTAGGGAGTAATCCCCTTGGCGGTTAAAACGCGGGGGACAGCGCGTACGTGCGTTTAAGCGGTGCTAGAGCTGTCTACGACCAATTGAGCGGCCTCGGCACCGGGATTCTCCAGGGCGGCCGCGTATT (double strand) [15-N601-15 nucleosome -1 meCpG]” the Kd ([1]; meCpG at -1) was 130 nM, the Kd (MeCP2 MBD (Homo sapiens); meCpG at -1) was 812 nM and the Kd ([2]; meCpG at -1) was 522 nM.

Work on “GAGCCACAAAACCGGCGACGCTCACGGGTGCCCAGTTCGCGCGCCCACCTACCGTGTGAAGTCGTCACTCGGGCTTCTAAGTACGCTTAGCGCACGGTAGAGCGCAATCCAAGGCTAACCACCGTGCATCGATGTTGAAAGAGGCCCTCCGTCCTTATTACTTCAAGTCCCTGGGGTACCCGTTTCACTGCCA (double strand) [16-N603-30 +91 CG nucleosome 91 meCpG]” yielded a Kd ([1]; meCpG at 91) of 71.3 nM.
